In publication PMC5551578 (The Journal of Experimental Medicine, 2017):
Like-named read-outs stand apart in the source and are kept apart here.

Key:
tetanus toxoid = tetanus toxoid (Clostridium tetani, production strain …, UniProt P04958)
[1] = molecular target: T1, H5N1 HA (A/Vietnam/1194/2004) (Influenza A virus A/Vietnam/1194/2004 …, UniProt A5A5M5, strain)
[2] = molecular target: T2, H1N1 HA (A/California/04/2009) (Influenza A virus A/California/04/2009 …, UniProt C3W5S1, strain); test: ELISA
T2 construct: source: bought: Sino Biological

[3] = molecular target: T3, H2N2 HA (A/Japan/305/1957) (Influenza A virus A/Japan/305/1957 …, UniProt P03451, strain); test: ELISA; conditions: one partner purified
T3 construct: source: bought: Sino Biological

[4] = molecular target: T1, H5N1 HA (A/Vietnam/1194/2004); test: ELISA; conditions: one partner purified
[5] = molecular target: T4, H3N2 HA (A/Perth/16/2009) (Influenza A virus A/Perth/16/2009 (H3N2), UniProt C6KNH7, strain); test: ELISA; conditions: one partner purified
T4 construct: also called H3N2 hemagglutinin; source: bought: Sino Biological

B1: TT-Ab1 (antibody, V domains shown)
VH: QVQLQESGAEVKNLGASVKVSCKASGYIFTNYGITWVRQAPGQGLEWIGWTTIYNGNTNYARKLQGRVTMTTGTSTRTAYMELRSLKSDDTAMYYCARGLRHYHDGSPLEYWGQETTVTVSS
VL: DIVMTQSPGTLSLSPGERVTLSCRASQSVGSSYLAWYQQKPGQTPRLLVFGASSRATGIPDRFSGSGSGTDFTLTISRLEPEDFAVYYCQLYGNSLITFGQGTRLEIK
binding result (tetanus toxoid): binds

B2: TT-Ab2 (antibody, V domains shown)
VH: EVQLVESGAEVKKPGASVKLSCKASGYTVTSDYMHWVRQAPGQGLEWMGIINPSDGSTNYPRKFQGRVTMTRDTSTRTVYMEVSSLRSEDTAVYYCAGGGQRFTFDYWGQGATVTVSS
VL: QSALTQPASVSGSPGQSITISCTGTSGNVGSHNLVSWYQQHPGEAPKLVISDINRRPSGVSNRFSGSKSGNTASLTISGLQAEDEADYFCCSYAGNSNVIFGGGTKLTVL
binding result (tetanus toxoid): binds

B3: TT-Ab5 (antibody, V domains shown)
VH: EVQLVQSGAEVKKPGSSVKVSCTAPGVTFSTYPIDWVRQAPGQGLEWMGGIIPISGSPKYAQKFQGRVAITADGFTNTAYLELSSLRSEDTAVYYCATRESGYDGQFDYWGQGTLVTVSS
VL: QSVLTQPPSASGTPGQRVTISCTGSTSNIGNNYVYWYQQVPGTAPTLLIYRSNQRPSGVPDRFSGSKSGTSASLAISGLRSEDEADYYCATWDDSLGVVFGGGTKLTVL
binding result (tetanus toxoid): binds

B4: TT-Ab6 (antibody, V domains shown)
VH: EVQLLESGGGLVRPGGSLRLSCAASGFSFNDHYMTWVRQAPGKGLEWVSYISDGRVTTNYAASVKGRFIISRDNTKKTVYLQMNSLTAEDTAVYYCARVGPWPVMKGAFDSWGQGTLVTVSS
VL: DIQMTQSPGTLSLSPGERATISCRASQSVSSDYLVWYQQKPGQAPRLLIYGASRRATGIPDRFSGSGSGTDFTLTISRLEPEDFAVYYCQQYGSSPLFAFGPGTKVEIK
binding result (tetanus toxoid): binds

B5: TT-Ab8 (antibody, V domains shown)
VH: EVQLVESGGGLVQPGGSLRLSCAASGFTFSYYDMNWVRQAPGKGLEWLSYISGSGGVIYYADSVKGRFTISRDNAKNSLFLQMNSLRAEDTAVYYCARDPSPGRLGFFDYWGQGTLVTVSS
VL: EIVMTQSPAILSVSPGERATLSCRASQRVSSNLAWYQQKPGQAPRLLIYGASTRATGIPARFSGSGSGTEFTLTISSLQSEDCAIYYCQQYNNWPRTFGQGTKVEIK
binding result (tetanus toxoid): binds

B6: TT-Ab11 (antibody, V domains shown)
VH: QVQLQESGPGLVKPSQTLSLTCNVSDGSISSDGYYWSWLRQHPGKGPEWIGYIHHSGHPYYNPSLKSRVTMSIDTSKNQFALKLSSVTAVDTAMYYCARVRGTGYYPGTLDLWGQGTLVTVSS
VL: EIVLTQSPGTLSLSPGERATLSCRASQSVSSSYFAWYQQIPGQAPRLLIYGTSNRATGIPDRFSGSGSGKDFTLTISRLEPEDFAVYYCQQFGSSPLTFGGGTKVEIK
binding result (tetanus toxoid): binds

B7: TT-Ab13 (antibody, V domains shown)
VH: EVQLVESGAEVKKPGESLRISCKGSGYSFTTYWIGWVRQMPGKGLEWIGIIYAGDSDTRYSPSFQGQVTMPVDKSITTAYLQWSSLKASDTAMYYCARQGDPSSYLTSGFEFWGQGTLVTVSS
VL: DIQMTQSPSTLSASVGDGVTITCRASQSISRWLAWYQQKPGKAPKLLIYQASRLESGVPSRFSGSGSGTEFTLSISSLQPDDFATYYCHQYNSYSQTFGQGTKVEIK
binding result (tetanus toxoid): binds

B8: H5-Ab3 (antibody, V domains shown)
VH: EVQLVESGGGLVKPGGSLRLSCAASGFTFSTYSMNWVRHAPGKGLEWVSSISSGSNYIYYADSVKGRFTISRDNAKNSLYLQMNNLRAEDTAVYHCARDRGESSYYWFDPWGQGTLVTVSS
VL: QSALTQPASVSGSPGQSITISCTGTSSDVGAYDYVSWYRQHPGEAPKLLIYDVARRPSGVSFRFSGSKSGNAASLTISGLQAEDEADYFCSSYAGTTIWVFGGGTKLTVL
binding result [1]: binds

B9: H5-Ab6 (antibody, V domains shown)
VH: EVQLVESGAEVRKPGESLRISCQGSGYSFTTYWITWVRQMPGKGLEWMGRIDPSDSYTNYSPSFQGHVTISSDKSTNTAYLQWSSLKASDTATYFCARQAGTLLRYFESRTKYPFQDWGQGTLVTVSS
VL: EIVLTQSPGTLSLSPGERATLSCRASQSVSGGYLAWYQQRPGQAPRLLISGASTRATGIPDRFSGSGSGTDFTLTISGLEPEDFAVYYCQQYGDSPAYTFGQGTKVEIK
binding result ([2]; one partner purified): binds | binding result [3]: binds | binding result [4]: binds | binding result [5]: binds

B10: H5-Ab2 (antibody, V domains shown)
VH: EVQLVQSGAEVKKPGSSVKVSCRSSGGPFRSNAISWVRQAPGQGLEWMGGIIAVFGTVEYAQKFQGRVTITADDSRSTVYMELRSLRSDDTAFYYCASAHGYHNYGSRGYFVSWGQGTLVTVSS
VL: DIVMTQSPGTLSLSPGERATLSCRASQSVSSNYLAWYQQKLGQPPRLLIYGASSRATGIPDRFSGSGSGTDFTLTISRLEPEDYAVYYCQQYGSSPHTFGQGTKVEIK
binding result [2]: binds

B11: H5-Ab4 (antibody, V domains shown)
VH: EVQLVESGGGAVQPGRSLRLSCAVSGFTFSSYGMNWVRQAPGKGLEWVAVISYDGSNTYYADSVKGRFTISRDDSKNTLFLQMNSLRADDTAVYYCAKDFQLRLLRYFDWLSSPFDHWGQGTLVTVSS
VL: DIQLTQSPGTLSLSPGERATLSCRASQSIRSNFLAWYQQTPGQGPRLLIYGASSRATGIPDRFSGSGSGTDFTLTISGLEPEDFAVYYCQQYASSPQTFGQGTKVEIK
binding result [2]: binds
